Measurements taken from patent US20250084174A1 (AstraZeneca / MedImmune, published 2025).
Changes are numbered by the printed parent chain. Read-outs that look alike come from different tables or passages of the source. One block for each binder: values may come before it.

Experiments:
human CCR9A [1] = molecular target: T1, human CCR9A (human, UniProt P51686 1-369); test: binding to cells expressing human CCR9A, fluorescence counts (FL1 Counts) against Log M
T1 construct: Overexpressed on HEK cells; also called Hu A HEK; hCCR9 isoform A
T1 sequence: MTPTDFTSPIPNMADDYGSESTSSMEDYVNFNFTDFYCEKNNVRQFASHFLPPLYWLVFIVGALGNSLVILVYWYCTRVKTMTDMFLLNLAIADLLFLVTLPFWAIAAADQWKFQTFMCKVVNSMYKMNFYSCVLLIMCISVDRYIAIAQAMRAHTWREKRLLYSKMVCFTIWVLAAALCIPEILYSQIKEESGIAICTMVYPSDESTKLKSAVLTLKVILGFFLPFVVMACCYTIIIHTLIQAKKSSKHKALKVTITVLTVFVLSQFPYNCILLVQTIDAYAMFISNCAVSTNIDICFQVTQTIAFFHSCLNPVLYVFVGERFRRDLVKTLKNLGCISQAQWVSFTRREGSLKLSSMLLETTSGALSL

CXCR2 = molecular target: T2, CXCR2 (UniProt P25025 1-360, limits assumed); test: binding to cells expressing CXCR2, fluorescence counts (FL1 Counts) against Log M
T2 construct: whole, on cells; The cell line is not described
T2 sequence (looked up): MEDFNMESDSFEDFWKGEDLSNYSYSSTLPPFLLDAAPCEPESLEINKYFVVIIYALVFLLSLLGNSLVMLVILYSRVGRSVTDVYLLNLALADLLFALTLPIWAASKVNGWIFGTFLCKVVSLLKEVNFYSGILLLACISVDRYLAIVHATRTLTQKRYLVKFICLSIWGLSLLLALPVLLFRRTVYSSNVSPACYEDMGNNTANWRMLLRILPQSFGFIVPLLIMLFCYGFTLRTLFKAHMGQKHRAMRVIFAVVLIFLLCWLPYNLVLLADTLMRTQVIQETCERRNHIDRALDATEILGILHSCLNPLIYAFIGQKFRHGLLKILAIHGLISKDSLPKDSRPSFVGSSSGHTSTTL

cynomolgus CCR9 [2] = molecular target: T3, cynomolgus CCR9 (cynomolgus, UniProt Q0H741 1-369); test: cell-based or functional assay
T3 sequence: T1 sequence with D5E, I10V, I197V, V228M, N288S

CXCR1 = molecular target: T4, CXCR1 (UniProt P25024 1-350, limits assumed); test: binding to cells expressing CXCR1, fluorescence counts (FL1 Counts) against Log M
T4 construct: whole, on cells; The cell line is not described
T4 sequence (looked up): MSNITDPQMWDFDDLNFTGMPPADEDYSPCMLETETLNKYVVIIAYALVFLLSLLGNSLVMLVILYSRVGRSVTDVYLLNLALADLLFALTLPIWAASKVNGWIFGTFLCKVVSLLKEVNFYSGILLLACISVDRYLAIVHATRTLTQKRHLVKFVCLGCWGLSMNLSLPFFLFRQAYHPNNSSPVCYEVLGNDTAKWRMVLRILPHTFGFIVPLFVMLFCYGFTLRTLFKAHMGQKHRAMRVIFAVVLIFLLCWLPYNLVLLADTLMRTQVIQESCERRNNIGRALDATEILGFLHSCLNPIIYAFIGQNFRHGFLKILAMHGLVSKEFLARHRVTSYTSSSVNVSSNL

CCR5 [3] = molecular target: T5, CCR5 (UniProt P51681 1-352, limits assumed); test: binding to cells expressing CCR5, fluorescence counts (FL1 Counts) against Log M
T5 construct: whole, on cells; The cell line is not described
T5 sequence (P51681 whole entry): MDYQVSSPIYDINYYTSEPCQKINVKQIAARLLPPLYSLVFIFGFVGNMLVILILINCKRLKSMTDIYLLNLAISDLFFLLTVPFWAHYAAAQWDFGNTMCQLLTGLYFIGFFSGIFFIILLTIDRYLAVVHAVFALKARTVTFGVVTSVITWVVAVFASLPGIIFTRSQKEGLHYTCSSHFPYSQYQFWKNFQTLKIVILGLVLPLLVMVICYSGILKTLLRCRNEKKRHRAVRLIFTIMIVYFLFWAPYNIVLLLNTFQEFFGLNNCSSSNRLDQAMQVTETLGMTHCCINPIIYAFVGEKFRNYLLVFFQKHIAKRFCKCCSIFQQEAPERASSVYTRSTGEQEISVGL

human CCR9B [4] = molecular target: T6, human CCR9B (human, UniProt P51686 13-369); test: binding to cells expressing human CCR9B, fluorescence counts (FL1 Counts) against Log M
T6 construct: Overexpressed on HEK cells; also called Hu B HEK; hCCR9 isoform B
T6 sequence: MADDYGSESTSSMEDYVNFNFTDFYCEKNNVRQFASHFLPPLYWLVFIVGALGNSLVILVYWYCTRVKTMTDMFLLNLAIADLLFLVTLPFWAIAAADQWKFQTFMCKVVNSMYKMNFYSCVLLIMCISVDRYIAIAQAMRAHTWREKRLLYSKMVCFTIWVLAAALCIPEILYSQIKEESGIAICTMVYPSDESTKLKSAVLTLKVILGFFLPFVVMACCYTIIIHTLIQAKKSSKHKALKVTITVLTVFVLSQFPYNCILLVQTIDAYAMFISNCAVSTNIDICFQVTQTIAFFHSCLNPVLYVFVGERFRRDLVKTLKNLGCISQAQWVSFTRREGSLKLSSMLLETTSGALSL

mouse CCR9 [5] = molecular target: T7, mouse CCR9 (mouse, UniProt Q9WUT7 1-369); test: cell binding by the methods of Example 4
T7 construct: whole, on cells; Overexpressed on HEK cells; also called mCCR9; Mouse HEK
T7 sequence (looked up): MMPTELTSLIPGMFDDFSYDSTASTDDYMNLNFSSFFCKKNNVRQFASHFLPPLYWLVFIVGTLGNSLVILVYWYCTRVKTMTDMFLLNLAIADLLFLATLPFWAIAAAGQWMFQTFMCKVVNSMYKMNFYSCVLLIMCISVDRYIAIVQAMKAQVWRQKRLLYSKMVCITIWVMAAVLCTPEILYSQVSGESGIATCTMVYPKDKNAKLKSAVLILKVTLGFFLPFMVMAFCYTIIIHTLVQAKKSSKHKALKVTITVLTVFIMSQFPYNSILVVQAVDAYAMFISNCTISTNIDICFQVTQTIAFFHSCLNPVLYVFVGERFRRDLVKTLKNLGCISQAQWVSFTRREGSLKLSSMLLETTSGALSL

rat CCR9 [6] = molecular target: T8, rat CCR9 (rat, UniProt Q8CH33 1-369); test: cell binding by the methods of Example 4
T8 construct: Overexpressed on HEK cells; also called Rat HEK
T8 sequence: T7 sequence (looked up) with M2T, L6F, F17Y, I60V, L64V, V189I, T197I, S272C, A283T

CCR8 [7] = molecular target: T9, CCR8 (UniProt P51685 1-355, limits assumed); test: binding to cells expressing CCR8, fluorescence counts (FL1 Counts) against Log M
T9 construct: whole, on cells; The cell line is not described
T9 sequence (P51685 whole entry): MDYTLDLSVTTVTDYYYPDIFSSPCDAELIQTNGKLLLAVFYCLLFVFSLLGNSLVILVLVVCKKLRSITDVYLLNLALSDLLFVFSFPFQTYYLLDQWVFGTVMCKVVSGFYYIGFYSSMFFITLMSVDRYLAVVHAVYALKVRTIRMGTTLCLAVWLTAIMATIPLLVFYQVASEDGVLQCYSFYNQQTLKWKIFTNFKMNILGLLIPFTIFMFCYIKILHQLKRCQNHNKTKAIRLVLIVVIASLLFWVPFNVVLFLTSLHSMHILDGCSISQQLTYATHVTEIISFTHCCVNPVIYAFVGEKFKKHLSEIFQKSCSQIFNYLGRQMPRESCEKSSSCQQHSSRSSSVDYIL

CCR5 [8] = molecular target: T5, CCR5; test: binding to cells expressing CCR5, fluorescence counts (FL1 Counts) against Log M; remark: listed apart in the source
CCR8 [9] = molecular target: T9, CCR8; test: binding to cells expressing CCR8, fluorescence counts (FL1 Counts) against Log M; remark: listed apart in the source
cynomolgus CCR9 [10] = molecular target: T3, cynomolgus CCR9; test: binding to HEK cells expressing cynomolgus CCR9, fluorescence counts (FL1 Counts) against Log M
human CCR9B [11] = molecular target: T6, human CCR9B; test: binding to HEK cells overexpressing human CCR9B, MFI against [Ab] ug/ml; Parental HEK stays at about 0
Description: (§1) The antibody AB1020243 (hybridoma mIgG) was also tested for binding to different forms of CCR9. Briefly, test antibody was diluted to a concentration of 60 μg/mL in assay buffer containing Hanks Balanced Salt solution (Sigma HB264) plus 0.1% Bovine Serum Albumin (Sigma A9576). Antibody was titrated in duplicate using single fold titrations over 24 points on a 384 black clear bottomed, non-binding microplate (Corning® NBS™ 3655) so that the final volume of test antibody was 10 μL per well. […]
(§2) Transfected HEK CCR9 overexpressing cell lines or un-transfected parental control cells were suspended in assay buffer at a concentration of 1×10⁶ cells per ml, and 10 μL of cells were dispensed to the assay plate containing test antibody and secondary antibody using a Multidrop dispenser (Thermo Scientific). Assay plates were incubated overnight at 4° C. and were read on a mirrorball® (laser scanning fluorescence cytometer; TTP-Labtech) using excitation at 488 nm and emission using the FL4channel (667-685 nm). Data was plotted in GraphPad Prism version 8.0.0 for Windows (GraphPad Software, San Diego, California USA) and expressed as Log (mg/mL antibody) v's Fluorescence (FL4) counts.

mouse CCR9 [12] = molecular target: T7, mouse CCR9; test: binding to HEK cells overexpressing mouse CCR9, MFI against [Ab] ug/ml
Description: as §1, §2

human CCR9A [13] = molecular target: T1, human CCR9A; test: binding to HEK cells overexpressing human CCR9A, MFI against [Ab] ug/ml; Parental HEK stays at about 0
Description: as §1, §2

rat CCR9 [14] = molecular target: T8, rat CCR9; test: binding to HEK cells overexpressing rat CCR9, MFI against [Ab] ug/ml
Description: as §1, §2

B1: AB243LO0326 (antibody, V domains shown)
VH: QVQLVQSGAEVKKPGASVKVSCKASGYTFTSYWMHWVRQAPGQGLEWIGVIYPGNSDTRYNQKFKGRVTITRDTSASTAYMELSSLRSEDTAVYYCTRDYYSNYVYYYAMDYWGQGTTVTVSS
VL: DIVMTQTPLSLPVTPGEPASISCRSSQSLVHPNRNTYLHWYLQKPGQSPQLLIYKVSNRFSGVPDRFSGSGSGTDFTLKISRVEAEDVGVYYCSQSTHVPWTFGQGTKLEIK
modifications: afucosylated form; in the LigandTracer assay DyLight 650 Maleimide on an engineered cysteine residue in the CH2 region
notes: Full chains are not tied to the tested lot
- binding result (human CCR9A [1]): binds
- binding result (CXCR2): no binding (tested: Log M about -6.9 (about 1e-7 M))
- EC50, killing of cynomolgus CD4+CCR9+ PBMC (cynomolgus CCR9 [2]): 0.03 nM
- binding result (CXCR1): no binding (tested: Log M about -6.9 (about 1e-7 M))
- binding result (CCR5 [3]): no binding (tested: Log M about -6.9 (about 1e-7 M))
- binding result (human CCR9B [4]): binds
- binding result (mouse CCR9 [5]): no binding
- binding result (rat CCR9 [6]): no binding
- binding result (CCR8 [7]): no binding (tested: Log M about -6.9 (about 1e-7 M))

B4: AB1020243 (hybridoma mIgG) (antibody, V domains shown)
VH: EVQLQQSGTVLARPGASVKMSCKASGYTFTSYWMHWVKQRPGQGLEWIGVIYPGNSDTRYNQKFKGKAKLTAVTSATTAYMELSSLTNEDSAVYYCTRDYYSNYVYYYAMDYWGQGTSVTVSS
VL: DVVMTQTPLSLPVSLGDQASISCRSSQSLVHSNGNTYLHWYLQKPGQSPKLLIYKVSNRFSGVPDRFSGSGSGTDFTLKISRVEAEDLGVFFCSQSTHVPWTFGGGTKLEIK
notes: Mouse IgG from the hybridoma; also called clone ZY10O1-A02
- binding result (human CCR9B [11]): binds
- binding result (mouse CCR9 [12]): no binding (tested: 10 ug/ml)
- binding result (human CCR9A [13]): binds
- binding result (rat CCR9 [14]): no binding (tested: 10 ug/ml)

Continued, in another order:

- binding result (mouse CCR9 [5]): no binding
- binding result (rat CCR9 [6]): no binding
B2: AB243LO0331 (antibody, IgG1, V domains shown)
VH: B1 VH
VL: B1 VL with P32S, R34T
modifications: afucosylated form

- EC50 (read off the curve) (cynomolgus CCR9 [10]): ~0.6 nM
B3: AB1020243 afuc (chimeric parent antibody, afucosylated) (antibody, V domains shown)
VH: B4 VH
VL: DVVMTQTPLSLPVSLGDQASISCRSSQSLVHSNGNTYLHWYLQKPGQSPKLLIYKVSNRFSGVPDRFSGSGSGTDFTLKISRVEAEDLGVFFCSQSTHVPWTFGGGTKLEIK
modifications: afucosylated form; in the LigandTracer assay DyLight 650 Maleimide on an engineered cysteine residue in the CH2 region
notes: Mouse variable domains; Called chimeric, with human IgG1 format stated for the LigandTracer assay; also called chimeric AB1020243; parent AB1020243
- binding result (CXCR2): no binding (tested: Log M about -6.9 (about 1e-7 M))
- binding result (CXCR1): no binding (tested: Log M about -6.9 (about 1e-7 M))
- binding result (CCR5 [8]): no binding (tested: Log M about -6.5 (about 3e-7 M))
- binding result (CCR8 [9]): no binding (tested: Log M about -6.5 (about 3e-7 M))
